Experimental data: PMC4437517

Columns and labels:
Type in all cases: biochemical, Arabidopsis thaliana
[1] = substrate: N[C@@H](Cc1ccc(OP(=O)(O)O)cc1)C(=O)O; assay: Malachite Green phosphate release, non-linear fit; details: pH 5.0, no metal, 37 °C, substrate inhibition above 3.0 mM
[2] = substrate: Nc1ncnc2c1ncn2[C@@H]1O[C@H](COP(=O)(O)OP(=O)(O)OP(=O)(O)O)[C@@H](O)[C@H]1O; assay: Malachite Green phosphate release, non-linear fit; details: pH 5.0, no metal, 37 °C
[3] = substrate: O=[N+]([O-])c1ccc(OP(=O)(O)O)cc1; assay: phosphatase assay, non-linear fit; details: pH 5.0, no metal, 37 °C

B1: At1g05000 (Arabidopsis thaliana; M1S) (protein)
chain: SKLVEKTTTTEQDNGEDFCRTIIEVSEVNRNVFQAPGGEADPFRVVSGEELHLIPPLNFSMVDNGIFRSGFPDSANFSFLQTLGLRSIIYLCPEPYPESNLQFLKSNGIRLFQFGIEGNKEPFVNIPDHKIRMALKVLLDEKNHPVLIHCKRGKHRTGCLVGCLRKLQKWCLTSIFDEYQRFAAAKARVSDQRFMEIFDVSSFSHIPMSFSCSIR
In the case of B1, the Km [1] is reported as 880 ± 100 µM, the Vmax [1] is reported as 0.19 µmol/min/mg and the kcat [1] is reported as 0.077 ± 0.004 s⁻¹. For the same protein, the kcat/Km [1] was 87.5 M⁻¹ s⁻¹, the Km [2] was 480 ± 50 µM and the Vmax [2] was 1.52 µmol/min/mg. The kcat [2] was 0.62 ± 0.02 s⁻¹, the kcat/Km [2] was 1290 M⁻¹ s⁻¹ and the Km [3] was 670 ± 140 µM. For the same protein, the Vmax [3] was 0.64 µmol/min/mg, the kcat [3] was 0.26 ± 0.02 s⁻¹ and the kcat/Km [3] was 392 M⁻¹ s⁻¹.
